Experimental data taken from patent publication US20200023071A1 (INNATE PHARMA, published 2020).

T1: human MICA endogenously expressed on the surface of HCT116 colon carcinoma cells (human, UniProt Q29983 24-383)
T1 sequence (looked up): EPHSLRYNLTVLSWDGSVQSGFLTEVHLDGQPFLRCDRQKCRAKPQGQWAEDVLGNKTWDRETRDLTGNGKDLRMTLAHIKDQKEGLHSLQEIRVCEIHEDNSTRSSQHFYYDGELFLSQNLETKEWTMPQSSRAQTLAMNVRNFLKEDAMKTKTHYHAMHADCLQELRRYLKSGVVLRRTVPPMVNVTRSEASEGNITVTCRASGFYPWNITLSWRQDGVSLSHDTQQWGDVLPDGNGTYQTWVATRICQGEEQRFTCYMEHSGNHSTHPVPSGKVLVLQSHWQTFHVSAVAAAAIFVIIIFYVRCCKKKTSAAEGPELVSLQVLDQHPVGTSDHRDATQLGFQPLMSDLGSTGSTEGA


Target: T1, human MICA endogenously expressed on …
Experiment: cell-based or functional assay

| Binder | EC50 (also referred to as IC50) of cytotoxicity towards HCT116 cells, cell confluence over one week (IncuCyte) [ng/mL] |
| --- | --- |
| chimeric antibody 9C10 (human IgG1 constant regions) conjugated to a PBD dimer, DAR about 2 (antibody, V domains shown, PBD dimer via NH2-PEG-N3 / DBCO-val-ala linker on Q295 (Kabat EU numbering) of each heavy chain constant region) VH: QVQLQQPGAELVRPGTSVNLSCKASGYSFTRYWMNWVKQRPGQGLEWIGMIHPSDSETRLNQKFKDKATLTVDKSSSTAYMQLSSPTSEDSAVYYCGYGNFFYVMDYWGQGTSVTVSS VL: DILLTQSPAILSVSPGERVSFSCRASQSIGTSIHWYQQRTNGSPRLLIKFASESISGIPSRFSGSGSGTDFTLNINSVESEDIADYYCQQSNFWPFTFGSGTKLEVK | 7.77 |
| chimeric antibody 18E8 (human IgG1 constant regions) conjugated to a PBD dimer, DAR about 2 (antibody, V domains shown, PBD dimer via NH2-PEG-N3 / DBCO-val-ala linker on Q295 (Kabat EU numbering) of each heavy chain constant region) VH: DVQLQESGPDLVNPSQSLSLICTVTGYSITSDYSWHWIRQFPGNKLEWMGNIHYSGRINYNPSLRSRISITRDTSKNQFFLQLISVTTEDTATYYCATRRTFGNFEDYWGQGTTLTVSS VL: QIVLSQSPATLSVSPGEKVTMTCRSSSSVNYMHWYQQKPGSSPKPWIYATSTLASGVPARFSGSGSGTSYSLTISRVEAEDAATYYCQQWSSNPLTFGAGTKLELK | 3.77 |
| chimeric antibody 19E9 (human IgG1 constant regions) conjugated to a PBD dimer, DAR about 2 (antibody, V domains shown, PBD dimer via NH2-PEG-N3 / DBCO-val-ala linker on Q295 (Kabat EU numbering) of each heavy chain constant region) VH: DVQLQESGPGLVKPSQSLSLTCTVTGYSITSDYAWNWIRQFPGNKLEWMGFVSYSGTTKYNPSLKSRISITRDTSENQFFLQLNSVTSEDTATYYCARGYGFDYWGQGTTLTVSS VL: EIVLTQSPTTMAASPGEKITITCSATSSISSIYFHWYQQRPGFSPKLLIYRTSNLASGVPARFSGSGSGTSYSLTIGTMEAEDVATYYCQQGTTIPFTFGSGTKLEIK | 0.475 |
| chimeric antibody 6E4 (human IgG1 constant regions) conjugated to a PBD dimer, DAR about 2 (antibody, V domains shown, PBD dimer via NH2-PEG-N3 / DBCO-val-ala linker on Q295 (Kabat EU numbering) of each heavy chain constant region) VH: EVQLVESGGALVKPGGSLKLSCAASGFTFSYYAMSWVRQTPEKRLEWVATISRGGNYIYYTDSVKGRFTISRDNAKNTLYLQMTSLRSEDTAMFYCASISDYDGAWLAYWGQGTLVTV VL: DVLMTQTPLSLPVSLGDQASISCRSSQSIIHTNGNTYLEWYLQKPGQSPKLLIYKISNRFSGVPDRFSGSGSGTDFTLKISRVEAEDLGVYYCFQGSHVPWTFGGGTKLEIK | 2.25 |
